Entries after “also recorded” stand apart in the source; their conditions may differ.

The target of one experiment is T1, αIIbβ3 integrin (Homo sapiens, UniProt P05106+P08514).
T1 construct: Platelets and megakaryocytes are the only cells to express αIIbβ3 integrin; endogenous in cells; host or cells: washed human platelets from a healthy donor
Kind of experiment: LIBS antibody binding to human platelets (flow cytometry). It is filed as cell-based. The note with it: for LIBS binding to platelets (3 LIBS mAbs): platelets with PGE1 / kept on ice; for D3 LIBS antibody binding to platelets: 100 μM clasp peptide in the presence of RGD. How it is done: Preparation of Fresh Platelets—Collection of human blood was performed under an approved protocol of the Washington University School of Medicine Human Studies Committee. 30 mL of blood was drawn from a healthy donor into 3% sodium citrate, and centrifuged at 200×g for 10 min. at room temp. to yield platelet-rich plasma (PRP). The PRP was treated with 1 μg/ml prostaglandin E1 (PGE-1) and centrifuged at 500×g for 5 min. The platelet pellet was resuspended in Tyrode's solution (137 mM NaCl, 2.7 mM KCl, 2 mM CaCl2, 1 mM MgCl2, 3.3 mM NaH2PO4, 5.5 mM glucose, 20 mM HEPES, pH 7.4 with 1 mg/ml BSA and 1 μg/ml PGE-1. The platelet suspension was stored on ice for 1 to 48 hr or treated as described below.
(§1) Flow Cytometry—Binding of anti-β3 mAb AP3 and anti-LIBS mAbs LIBS1, LIBS6 and D3 was quantified using a Coulter EPICS flow cytometer. 10^6 cells were washed and resuspended in 100 μl of FACS buffer (1% BSA, 2 mM MgCl2, in PBS) and incubated on ice for 30 minutes. Cells were washed and resuspended in buffer (PBS+2 mM MgCl2 or 1 mM each CaCl2 and MgCl2) along with combinations of 0-1 mM GRGDSP (SEQ ID NO: 19) with 500 μM MnCl2, 100 μM P2483, 100 μM P2484, and 100 μM P2485 or control peptide. Cells were then incubated on ice for 30 minutes. Cells were washed and incubated in 100 μl of buffer (PBS+2 mM MgCl2) containing donkey anti-mouse IgG-FITC at a 1:100 dilution for an additional 30 min. After washing, the cells were diluted to 0.5 ml and analyzed by flow cytometry. Data was analyzed using WinMDI software.
Platelets and megakaryocytes are the only cells to express αIIbβ3 integrin, and thus platelets offer a unique system in which to test the effects of the clasp peptides on β3 integrin activation. They also provide the opportunity to compare the activation response to the clasp peptides of αIIbβ3 vs αvβ3. Several G protein coupled receptors (e.g. those for ADP, thromboxane and thrombin) on platelets can rapidly activate αIIbβ3 via inside-out signaling (2). To eliminate this route of activation platelets were incubated with PGE1, which elevates cyclic AMP levels via Gs, and in some experiments also used apyrase to block activation by leaked ADP (39). In addition, platelets were kept on ice for as long as 24 to 48 hours to ensure metabolic inactivity. While short-term exposure to cold can activate platelets, long term exposure makes platelets refractory to activation (40).
Background: In flow cytometry, cells or beads pass a laser one at a time.

The target in another experiment is T2, αvβ3 integrin (Homo sapiens, UniProt P05106+P06756).
T2 construct: Full length cDNA clones of human αv and β3 integrin subunits were provided by Dr. Scott Blystone; expressed in transfected cells; host or cells: human K562 erythroleukemia cells (ATCC CCL-243), stably expressing αvβ3
In words: LIBS antibody binding to αvβ3 on K562 cells (flow cytometry). It is filed as cell-based. The following applies: K562 cells expressing αvβ3; for LIBS1 antibody binding: 100 μM peptide, in the presence of 1 mM RGD peptide, absence of Mn++; for LIBS1, LIBS6 or D3 antibody binding (fluorescence): 1 mM GRGDSP vs LIBS antibody with no RGD peptide. How it is done:
as §1
To more directly monitor changes in integrin conformation, a series of antibodies (mAbs) were used that react with ligand-bound or activated states of β3 integrins. These LIBS mAbs used here recognize epitopes at three different sites within the stalk region of the β3 subunit that are masked in the “off” state and only become accessible when the integrin is “opened up” in the ligand-binding, activated conformation (37). When K562 cells transfected to express αvβ3 integrin were incubated with the LIBS1 or LIBS6 mAbs alone (dotted histograms in FIG. 2), little antibody binding above isotype control mAb or secondary mAb alone was detected. D3 mAb appeared to induce some activation of the integrin since its binding to αvβ3 (FIG. 2, dotted line) was several fold above that of controls. GRGDSP (SEQ ID NO: 19) peptide augments LIBS binding by stabilizing active conformations of the β3 integrin. […] The effect of the clasp peptides on the binding of each LIBS mAb was determined in the presence of 1 mM RGD peptide, but in the absence of Mn^++.

In the next experiment the test system is C32 melanoma cells. Kind of experiment: C32 cell adhesion and spreading on vitronectin. It is filed as cell-based, human. The note with it: Vn-coated wells. How it is done: Cell Spreading Assay—Spreading of C32 cells on Vn was performed as described (31) in 24-well tissue culture plates coated with 0.5 μg/ml Vn and blocked with 1% BSA/PBS for 2 hrs at room temperature. C32 cells were plated in HBSS with 2 mM CaCl2 and 2 mM MgCl2 in the presence of 2 mM MnSO4, and indicated amounts of GRGDSP (SEQ ID NO: 19), P2483, P2484, or 4N1K. Cells were allowed to spread for 30 minutes at 37° C., after which the cells were fixed, stained, and photographed.
As an initial approach to testing the function of the putative clasp region of β3 integrins, synthetic peptides were used to mimic the α and β sides of the clasp. It was reasoned that αIIbβ3 is likely to be held in the off state more securely than αvβ3, and thus the αIIb clasp sequence was chosen for these experiments (Table 1). To evaluate the effects of the putative clasp peptides on αvβ3 activation in live cells, adhesion and spreading assays using C32 melanoma cells were performed. […] Not until αvβ3 is activated, e.g. via Mn^++ or CD47 stimulation, does αvβ3-dependent spreading occur (35). The assay was performed in Ca^++/Mg^++ which supports integrin activity, and we used Mn^++ activation of αvβ3 as a positive control (6). The putative clasp peptides were incubated with cells added to the Vn-coated wells and after 30 min at 37° cell attachment and spreading were assessed (FIG. 1).

Experiment [1] concerns the target wild-type human αvβ3 integrin on cells (human, UniProt P06756 31-1048; P05106 27-788). Kind of experiment: cell-based or functional assay.
Setting [2] is: 100 μM clasp peptide, 30 min at 37°.
Setting [3] is: 100 μM clasp peptide in the presence of 100 μM RGD, metabolically inactive human platelets.

T2 sequence (P06756 31-889 limits assumed): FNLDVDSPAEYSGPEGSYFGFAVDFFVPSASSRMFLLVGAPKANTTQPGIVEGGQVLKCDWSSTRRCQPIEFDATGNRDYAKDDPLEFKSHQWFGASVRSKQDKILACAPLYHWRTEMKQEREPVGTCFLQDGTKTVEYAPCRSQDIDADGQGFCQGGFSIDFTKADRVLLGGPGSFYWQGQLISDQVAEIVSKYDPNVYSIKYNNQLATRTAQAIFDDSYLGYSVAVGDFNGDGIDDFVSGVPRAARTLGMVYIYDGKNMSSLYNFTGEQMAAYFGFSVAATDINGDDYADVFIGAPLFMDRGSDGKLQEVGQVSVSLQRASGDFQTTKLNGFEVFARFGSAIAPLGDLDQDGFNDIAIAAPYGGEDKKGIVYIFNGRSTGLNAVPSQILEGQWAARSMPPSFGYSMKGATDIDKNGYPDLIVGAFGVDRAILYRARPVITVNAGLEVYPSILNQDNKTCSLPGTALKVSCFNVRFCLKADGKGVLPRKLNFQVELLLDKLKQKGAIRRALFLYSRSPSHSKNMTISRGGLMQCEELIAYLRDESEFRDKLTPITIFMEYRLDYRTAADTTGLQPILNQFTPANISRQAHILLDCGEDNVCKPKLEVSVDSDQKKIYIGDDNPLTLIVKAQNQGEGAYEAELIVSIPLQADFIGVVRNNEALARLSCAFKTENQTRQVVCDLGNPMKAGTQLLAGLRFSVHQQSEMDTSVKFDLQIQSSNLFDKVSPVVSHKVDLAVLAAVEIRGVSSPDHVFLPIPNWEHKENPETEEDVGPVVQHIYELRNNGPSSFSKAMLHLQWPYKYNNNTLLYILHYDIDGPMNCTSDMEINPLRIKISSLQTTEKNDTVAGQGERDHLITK
T2 sequence (P06756 891-1048 limits assumed): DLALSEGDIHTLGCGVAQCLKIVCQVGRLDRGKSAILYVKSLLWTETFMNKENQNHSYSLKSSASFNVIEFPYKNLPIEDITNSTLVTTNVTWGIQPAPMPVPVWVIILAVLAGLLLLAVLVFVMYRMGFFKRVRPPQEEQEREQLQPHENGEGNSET
T2 sequence (P05106 27-788): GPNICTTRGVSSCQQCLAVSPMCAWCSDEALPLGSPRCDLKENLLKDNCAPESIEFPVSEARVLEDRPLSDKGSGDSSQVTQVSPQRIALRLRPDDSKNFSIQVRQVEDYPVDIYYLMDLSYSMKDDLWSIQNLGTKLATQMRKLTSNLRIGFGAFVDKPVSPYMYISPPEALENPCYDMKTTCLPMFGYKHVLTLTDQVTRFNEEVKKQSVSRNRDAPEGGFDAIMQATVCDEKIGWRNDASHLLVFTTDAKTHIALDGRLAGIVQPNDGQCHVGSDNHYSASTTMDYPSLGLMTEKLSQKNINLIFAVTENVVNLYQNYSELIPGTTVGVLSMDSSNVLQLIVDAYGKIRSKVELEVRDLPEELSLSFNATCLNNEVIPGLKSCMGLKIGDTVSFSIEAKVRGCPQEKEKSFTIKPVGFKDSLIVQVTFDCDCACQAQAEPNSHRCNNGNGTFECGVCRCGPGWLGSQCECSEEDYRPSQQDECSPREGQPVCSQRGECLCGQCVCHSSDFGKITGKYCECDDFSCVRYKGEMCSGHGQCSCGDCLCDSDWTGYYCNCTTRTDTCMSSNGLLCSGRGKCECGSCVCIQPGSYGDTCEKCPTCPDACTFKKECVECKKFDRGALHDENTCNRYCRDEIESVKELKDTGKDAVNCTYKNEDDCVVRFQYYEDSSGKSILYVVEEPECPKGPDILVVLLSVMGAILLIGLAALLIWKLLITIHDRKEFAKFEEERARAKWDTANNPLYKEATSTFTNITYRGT
wild-type human αvβ3 integrin on cells, sequence (P06756 31-1048, chain 1 of 2): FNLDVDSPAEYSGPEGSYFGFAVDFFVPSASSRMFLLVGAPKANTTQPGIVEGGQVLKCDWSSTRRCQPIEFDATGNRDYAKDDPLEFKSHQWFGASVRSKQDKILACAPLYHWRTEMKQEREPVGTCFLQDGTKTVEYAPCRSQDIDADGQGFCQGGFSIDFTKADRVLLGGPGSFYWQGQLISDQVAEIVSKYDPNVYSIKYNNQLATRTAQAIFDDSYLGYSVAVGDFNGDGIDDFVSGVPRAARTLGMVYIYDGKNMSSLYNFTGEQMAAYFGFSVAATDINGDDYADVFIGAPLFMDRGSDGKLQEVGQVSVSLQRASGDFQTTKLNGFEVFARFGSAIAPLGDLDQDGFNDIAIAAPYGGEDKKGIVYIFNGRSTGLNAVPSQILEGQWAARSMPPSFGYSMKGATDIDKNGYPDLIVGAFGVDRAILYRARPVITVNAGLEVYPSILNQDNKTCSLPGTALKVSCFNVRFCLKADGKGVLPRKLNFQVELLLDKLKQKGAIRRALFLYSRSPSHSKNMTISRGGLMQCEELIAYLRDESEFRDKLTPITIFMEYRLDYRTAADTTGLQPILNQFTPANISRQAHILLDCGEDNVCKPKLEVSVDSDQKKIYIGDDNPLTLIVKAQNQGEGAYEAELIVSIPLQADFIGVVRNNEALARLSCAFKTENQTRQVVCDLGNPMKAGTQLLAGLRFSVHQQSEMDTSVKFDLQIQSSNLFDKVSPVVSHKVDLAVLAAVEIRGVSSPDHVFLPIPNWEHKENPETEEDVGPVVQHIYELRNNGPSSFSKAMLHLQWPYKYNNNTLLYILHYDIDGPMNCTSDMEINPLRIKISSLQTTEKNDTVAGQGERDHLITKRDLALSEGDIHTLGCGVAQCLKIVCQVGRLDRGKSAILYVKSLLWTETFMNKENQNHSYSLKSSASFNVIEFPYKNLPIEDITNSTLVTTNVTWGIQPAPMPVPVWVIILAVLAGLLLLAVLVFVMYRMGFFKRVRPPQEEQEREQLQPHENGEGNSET
wild-type human αvβ3 integrin on cells, sequence (P05106 27-788, chain 2 of 2): as the sequence (P05106 27-788) above

Turning to `Nc1ncnc2c1ncn2[C@@H]1O[C@H](COP(=O)(O)OP(=O)(O)O)[C@@H](O)[C@H]1O` [ADP], the “LIBS binding to platelets (3 LIBS mAbs)” value at αIIbβ3 integrin (50 μM ADP) is recorded as “Neither of these agonists was able to increase LIBS binding”.

Consider “thrombin receptor activating peptide [TRAP]”, for which the “LIBS binding to platelets (3 LIBS mAbs)” value on αIIbβ3 integrin (10 μM TRAP) was “Neither of these agonists was able to increase LIBS binding”.

On to “KMDASAAVS (listed as Homo sapiens) [control peptide]”, for which, in the experiment with αvβ3 integrin, the LIBS1 antibody binding result is given as “did not enhance LIBS1 binding”.

Regarding “KRFYVVMWKK (listed as Homo sapiens) [4N1K]”, the “increase in number of spread cells” value in the experiment with C32 melanoma cells (50 μM 4N1K) is reported as about 10 fold. The “C32 cell adhesion increased” value with C32 melanoma cells (50 μM 4N1K, 30 min at 37°, no additions set at 100%) is recorded as 400%.

Consider GRGDSP, for which, in the experiment with C32 melanoma cells (0.5 mM GRGDSP), the C32 cell adhesion entry is listed as “effectively reduced cell adhesion; also recorded: nearly eliminated” and the C32 cell spreading result is “nearly eliminated”. Moreover, the “LIBS1, LIBS6 or D3 antibody binding (fluorescence)” value in the experiment with αvβ3 integrin is given as “increase in fluorescence”. For the same molecule, the “LIBS1, LIBS6 or D3 antibody binding (fluorescence)” value with αvβ3 integrin (listed as RGD peptide) was “increase in D3 binding”. Moreover, in the experiment with αIIbβ3 integrin (100 μM RGD, human platelets), the “LIBS1 binding to αIIbβ3” value is on record as “sufficient to increase LIBS1 binding” and the “LIBS6 binding to αIIbβ3” value was “not increased”.

For “TTRTDTC (listed as Homo sapiens) [P2483]”, the C32 cell adhesion entry in the experiment with C32 melanoma cells (setting [2]) was “stimulated cell adhesion to an extent comparable to 4N1K”. Besides, the LIBS1 antibody binding result is on record as “dramatically increased” in the experiment with αvβ3 integrin and “greater than that promoted by RGD plus Mn^++” in the experiment with αvβ3 integrin (listed as 2483). Besides, the “LIBS1 binding to αIIbβ3” value with αIIbβ3 integrin (setting [3]) was “unable to increase LIBS1 binding”; with αIIbβ3 integrin (100 μM clasp peptide in the presence of 100 μM RGD, metabolically inactive human platelets, listed as β3 clasp peptide), “failed to increase LIBS1 binding”. Also, the “D3 LIBS antibody binding to platelets” value with αIIbβ3 integrin (human platelets) is on record as “marginally stimulated D3 binding”.

Regarding “YMESRADRK (listed as Homo sapiens) [P2484]”, in the experiment on C32 melanoma cells (setting [2]), the C32 cell adhesion entry is given as “stimulated cell adhesion to an extent comparable to 4N1K”. Further, the results for the LIBS1 antibody binding result with αvβ3 integrin and with αvβ3 integrin (listed as 2484) were “dramatically increased” and “greater than that promoted by RGD plus Mn^++”, respectively. Moreover, the “LIBS1 binding to αIIbβ3” value is given as “increased LIBS1 binding” with αIIbβ3 integrin (setting [3]) and “increased binding well above that with RGD alone” with αIIbβ3 integrin (100 μM clasp peptide in the presence of 100 μM RGD, metabolically inactive human platelets, listed as αIIb clasp peptide). Also, in the experiment with αIIbβ3 integrin (human platelets), the “D3 LIBS antibody binding to platelets” value was “large rightward shifts”.

On to `[Mn+2]` [Mn^++], for which, in the experiment on C32 melanoma cells (2 mM MnSO4), the “C32 cell adhesion to Vn” value is reported as “increased adhesion”, the C32 cell spreading entry is given as “enhanced spreading” and the “increase in number of spread cells” value is listed as “ca. 3 fold”. Further, on αvβ3 integrin (0.5 mM Mn++ added to 1 mM GRGDSP), the “LIBS antibody binding shift” value is reported as “further augmented”. In addition, the LIBS1 binding shift entry at αIIbβ3 integrin (0.5 mM Mn++ added to 100 μM RGD, human platelets) is “further magnified”.

As for YMESRADRK [P2484 (αIIb integrin clasp peptide, residues 313-321, YMESRADRK)], the “C32 cell spreading on vitronectin” value in experiment [1] worked out at 78 fold.

As to TTRTDTC [P2483 (β3 integrin clasp peptide, residues 561-567, TTRTDTC)], in experiment [1], the “C32 cell spreading on vitronectin” value is 9 fold.

These data come from US20090191645A1, “COMPOUNDS AND METHODS FOR MODULATING INTEGRIN ACTIVITY” (Washington University in St. Louis, priority 2008, published 2009).
